In patent US20250296996A1, “ANGIOPOIETIN-RELATED PROTEIN 7-SPECIFIC ANTIBODIES AND USES THEREOF” (Broadwing Bio, Inc., priority 2022, published 2025):
Entries after “also recorded” stand apart in the source; their conditions may differ.

Test system: 3D human trabecular meshwork (HTM) cells co-cultured with human Schlemms' canal (HSC) cells
Test: Outflow facility in bioengineered 3D HTM/HSC ex vivo human eye tissue model, ANGPTL7 or dexamethasone
Type: cell-based
Settings: 3D-HTM donors; 500 nM Dexamethasone or 50 ng/mL ANGPTL7 vs vehicle (DMSO)
Protocol: Experiments were conducted to determine the effects of ANGPTL7 on outflow facility in a bioengineered ex vivo human eye tissue model. Glauconix developed a proprietary technology allowing multi-layer growth of bioengineered 3D human trabecular meshwork (HTM) cells co-cultured with human Schlemms' canal (HSC) cells, thereby mimicking the architecture of the tissues responsible for pressure build-up in the human eye (FIG. 3A). This allows endpoint analyses relevant to IOP-modulation. This scaffolding of cells is used to compare treatment effects of vehicle (DMSO), dexamethasone (a steroid known to elevate IOP), and human ANGPTL7 protein on outflow facility.
Briefly, HTM cells were thawed and allowed to grow for about 7 days (media changes every 2 days). The HTM cells were seeded onto scaffolds and HSC cells were thawed on the same day; the HTM cells were allowed to grow for 7 days on the scaffolds with media changes every 2 days. HSCs were co-cultured on the back side of the HTM scaffolds and grown for 10-12 days with media changes every 2 days. […]
Samples were analyzed using One-way ANOVA (GraphPad Prism Software, Inc., La Jolla, CA), *P<0.05, **P<0.0.01, ***P<0.001 N=4 per treatment group. […] […]

B1: ANGPTL7: human ANGPTL7 protein (angiopoietin-related protein 7), made by Biortus, used as treatment at 50 ng/mL (protein)
chain: QKLSKHKTPAQPQLKAANCCEEVKELKAQVANLSSLLSELNKKQERDWVSVVMQVMELESNSKRMESRLTDAESKYSEMNNQIDIMQLQAAQTVTQTSADAIYDCSSLYQKNYRISGVYKLPPDDFLGSPELEVFCDMETSGGGWTIIQRRKSGLVSFYRDWKQYKQGFGSIRGDFWLGNEHIHRLSRQPTRLRVEMEDWEGNLRYAEYSHFVLGNELNSYRLFLGNYTGNVGNDALQYHNNTAFSTKDKDNDNCLDKCAQLRKGGYWYNCCTDSNLNGVYYRLGEHNKHLDGITWYGWHGSTYSLKRVEMKIRPEDFKP
outflow facility: reduced outflow facility; also recorded: significantly decreased outflow facility
